Assay results as given in patent publication US20070172470A1, “Phosphatase regulation of nucleic acid transcription” (The Regents of the University of California, priority 2003, published 2007).

How the values were obtained:
[1] = test system: Gal 4-TK-Luc reporter stimulated by Gal 4-VP16; assay: Luciferase reporter assay, Gal 4-VP16 stimulated gene expression; format: cell-based, human; settings: HEK293 cells
Text: (§1) Gal4-DNA binding domain-SCP1 fusion protein expression plasmids-were cotransfected in HEK293 cells with a Gal 4-TKLuc reporter plasmid and luciferase gene expression quantitated. In all panels, results of triplicate transfections are shown +/− SD. Data is expressed as fold-activation experimental/control). […] The indicated amounts of SCP1 or mutant SCP1 expression plasmids were cotransfected in HEK293 cells along with Gal 4-VP16 expression and Gal 4-TK-Luc reporter plasmids and luciferase activity was quantitated. […] The indicated receptor expression plasmids were cotransfected with their cognate promoter-reporter plasmids with or without SCP1 or mutant SCP1 expression plasmids. Cells were treated or untreated with receptor-specific ligands as described infra. […] The indicated concentrations of SCP1 and mutant SCP1 expression plasmids were cotransfected with LMX1 and E47 expression plasmids and the rat insulin 1 promoter-luciferase reporter gene. Luciferase activity was measured as described.
(§2) Tissue Culture and Transfections: Human 293, COS7 and CV1 cells were grown at 37° C. in DMEM supplemented with 10% normal calf serum (BRL). Sub-confluent cells were transfected in 6 well tissue culture dishes using Effectene (Qiagen) according to the manufacturer's instructions. Reporter and activator plasmids (100 ng each) and Flag SCP1 (80 ng) or its mutant were used per well. […]

[2] = test system: rat insulin 1 promoter-luciferase reporter gene; assay: Rat insulin promoter-luciferase assay with LMX1 and E47; format: cell-based; settings: LMX1 and E47 co-expressed
Text: as §1, §2

[3] = test system: T3 receptor activity on DR+4 TRE-TK-Luc reporter; assay: Luciferase reporter assay, ligand-activated T3 receptor; format: cell-based, human; settings: 100 nM T3, DR+4 TRE-TK-Luc
Text: as §1, §2

[4] = target: T1, RNAP IIO (Bos taurus, UniProt G3MZY8); assay: CTD phosphatase assay with RNAP IIO as substrate; format: biochemical, calf
T1 construct: Calf thymus RNAP IIA was purified; from tissue; host or cells: calf thymus
Experimental: FIGS. 2C and 2D show a CTD phosphatase assay of FCP1 and SCP1 on GST-CTDo and RNAP IIO prepared by MAPK2/ERK2. Increasing amounts of FCP1 or GST-SCP1 214 were assayed in the presence of 75 fmol GST-CTDo (lanes 1-6), 75 fmol RNAP IIO (lanes 7-12), or 75 fmol GST-CTDo and 75. fmol RNAP IIO (lanes 13-18). Both GST-CTDo and RNAP IIO substrates were prepared by the in vitro phosphorylation of CKII-labeled GST-CTDa or RNAP IIA by MAPK2/ERK2. All reactions were carried out in the presence of 7 pmol RAP74. CTD dephosphorylation of both GST-CTDo and RNAP IIO is shown by the increase in mobility of GST-CTDo to GST-CTDa and subunit IIo to IIa, respectively. The difference in the intensity of radiolabeled GST-CTDoand that of radiolabeled subunit IIo is not a reflection of a difference in the amount of substrates present, but of the higher efficiency with which CKII incorporates radiolabeled phosphates onto the most C-terminal serine of GST-CTDa compared to subunit. IIa.
Increasing amounts of GST-SCP1 214 were assayed in the presence of 3.7 fmol RNAP IIO prepared by CTDK1/CTDK2, TFIIH, P-TEFb, MAPK2/ERK2 and Cdc2 kinase. All reactions were carried out in-the presence of 7 pmol. RAP74. CTD dephosphorylation of RNAP IIO isozymes. by qSTSCP1 214 is shown by an increase in mobility of subunit IIo to that of IIa. The results are summarized in the graph showing the percent of RNAP IIO remaining as a function of increasing SCP1 concentrations.
Preparation and Purification of ^32P-RNAP IIO Isozymess and ^32P-GST-CTDo: Calf thymus RNAP IIA was purified by the method of Hodo and Blatti (30) with modifications as described by Kang and Dahmus (31). Specific isozymes of ^32p-labeled RNAP IIO were prepared by phosphorylation at the most C-terminal serine (CKII site) in the largest subunit of purified RNAP IIA with recombinant CKII and […], followed by CTD phosphorylation in the presence of 2 mM ATP with either purified CTDK1/CTDK2, TFIIH, P-TEFb, recombinant MAPK2/ERK2 or recombinant Cdc2 kinase. The RNAP IIO isozymes were individually purified over a DE53 column with a step elution of 500 mM KCl (28). Because only the most C-terminal serine is labeled with ^32p and lies outside. the consensus repeat, dephosphorylation by CTD phosphatase results in an electrophoretic mobility shift in SDS-PAGE of subunit IIo to the position of subunit IIa without the loss of label. Similarly, ^32P-labeled GST-CTDo was prepared from GST-CTDa by CKII followed by MAPK2/ERK2. GST-CTDo was purified over a glutathione-agarose column with a step elution of 15 mM glutathione.
CTD phosphatase assays utilizing RNAP IIO and GST-CTDo as substrate were performed as described previously (32) with minor modifications. Reactions were performed in 20 μl of CTD phosphatase buffer (50 mM Tris-HCl, pH 7.9, 10 mM MgCl2, 20% glycerol, 0.025% Tween 80, 0.1 mM EDTA, 5 mM DTT) in the presence of 20 mM KCl. Each reaction contained specified amounts of GST-CTDo and/or RNAP IIO and was carried out in the presence of 7 pmol RAP74. Reactions were initiated by the addition of FCP1 or SCP1 and incubated at 30° C. for 30 minutes. Assays were terminated by the addition of 5× Laemmli buffer, and RNAP II subunits and GST-CTD were resolved on a 5% SDS-PAGE gel. The gel images were developed by autoradiography and scanned by Molecular Dynamics Image Scanner Storm 860 in the phosphor screen mode. Data were quantitatively analyzed by ImageQuant software.

[5] = 3.7 fmol RNAP IIO, 7 pmol RAP74

B1: SCP1: small CTD phosphatase-1, full-length 261 aa human protein, SEQ ID NO:2 (protein, listed as Homo sapiens)
chain: MDSSAVITQISKEEARGPLRGKGDQKSAASQKPRSRGILHSLFCCVCRDDGEALPAHSGAPLLVEENGAIPKTPVQYLLPEAKAQDSDKICVVIDLDETLVHSSFKPVNNADFIIPVEIDGVVHQVYVLKRPHVDEFLQRMGELFECVLFTASLAKYADPVADLLDKWGAFRARLFRESCVFHRGNYVKDLSRLGRDLRRVLILDNSPASYVFHPDNAVPVASWFDNMSDTELHDLLPFFEQLSRVDDVYSVLRQPRPGS
[1]
  Gal 4-VP16 stimulated luciferase activity: strongly inhibited
[2]; 40 ng SCP1 plasmid alone
  inhibition of luciferase expression: > 90%
[2]; 40 ng SCP1 plasmid plus 20 ng mutant SCP1 plasmid
  inhibition of luciferase expression: ~20%
[3]
  ligand-activated T3 receptor activity: inhibited
[4]
  dephosphorylation of RNAP IIO generated by Abl tyrosine kinase: unable to dephosphorylate
[4]; [5]
  dephosphorylation of RNAP IIO generated by TFIIH: most efficiently dephosphorylates
  dephosphorylation of RNAP IIO prepared with Cdc2 kinase: unable to dephosphorylate
[4]; relative to RNAP IIO prepared with TFIIH
  dephosphorylation of RNAP IIO isozymes prepared with P-TEFb, MAPK2/ERK2 and CTDK1/CTDK2: reduced rate
